According to US20060121042A1 (AstraZeneca / MedImmune, published 2006):

Tests used:
[1] = target: T1, Human EphA4-Fc fusion protein (human, UniProt P54764 20-547); assay: BIAcore, IgG immobilized on the sensor chip, EphA4-Fc as analyte; comment on the sheet: off-rate below LOD
T1 construct: not shown: Fc portion of a human IgG1
Experimental: FIG. 15A-15B. […] Binding affinities were measured using the BIAcore assay. […] Variant kinetic measurements for human EphA4 and were obtained using BIAcore with immobilized variant antibodies and human EphA4-Fc and EphA4-His as analytes.

r rat EphA5 = target: T2, r rat EphA5 (rat, UniProt P54757); assay: Activity ELISA, receptor coated on the plate, purified IgG, anti-human kappa-HRP
T2 construct: part of an Fc fusion; also called rEphA5; rratEphA5-Fc
T2 sequence (P54757 27-575 limits assumed): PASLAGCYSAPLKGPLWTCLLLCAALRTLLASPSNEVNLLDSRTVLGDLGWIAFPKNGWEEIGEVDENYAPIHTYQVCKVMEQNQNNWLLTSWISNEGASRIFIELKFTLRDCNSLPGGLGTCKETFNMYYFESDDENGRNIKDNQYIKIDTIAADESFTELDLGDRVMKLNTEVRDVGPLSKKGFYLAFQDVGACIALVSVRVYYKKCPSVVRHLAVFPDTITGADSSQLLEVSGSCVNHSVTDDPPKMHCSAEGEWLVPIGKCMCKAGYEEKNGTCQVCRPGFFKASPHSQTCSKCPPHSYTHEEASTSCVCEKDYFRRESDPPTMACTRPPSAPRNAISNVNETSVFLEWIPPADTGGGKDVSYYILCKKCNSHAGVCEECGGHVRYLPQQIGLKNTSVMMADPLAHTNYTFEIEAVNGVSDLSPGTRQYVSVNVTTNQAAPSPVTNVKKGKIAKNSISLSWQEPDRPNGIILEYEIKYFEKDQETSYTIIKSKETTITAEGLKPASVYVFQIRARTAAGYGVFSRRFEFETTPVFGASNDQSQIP
Experimental: (§1) Secondary screening of IgG constructs of affinity optimized combinatorial variants with additional EphA receptors: With purified IgG constructs of the nine combinatorial variants, additional secondary screening assays were performed using the Activity ELISA (see above) and recombinant EphA receptor proteins. More precisely, Nunc Maxisorp plates were coated with the following rEphA proteins: rhuEphAl-Fc; 0.5 μg/well, rmuEphA2-Fc; 0.5 μg/well, rmuEphA3-Fc: 0.1 μg/well, rmuEphA4-Fc; 0.1 μg/well, rratEphA5-Fc; 0.5 μg/well, rmuEphA6-Fc; 0.5 μg/well, rmuEphA7-Fc; 0.1 μg/well, rEphA8; 0.2 μg/well (all R&D Systems), rhuEphA2-Fc; 0.5 μg/well, and rhuEphA4-His; 0.1 μg/well (both produced at MedImmune, Inc.). Plates were blocked with 3% BSA+0.1% Tween20 for 2 h. […] Incubation with a goat anti-human kappa horseradish peroxydase (HRP) conjugate then followed. HRP activity was detected with TMB substrate and the reaction quenched with 0.2 M H₂SO₄. Plates were read at 450 nm. Data was analyzed by normalizing Fab concentrations to the corresponding activity data (see FIGS. 12A-12J and 14).

r murine EphA7 = target: T3, r murine EphA7 (mouse, UniProt Q61772); assay: activity ELISA, IgG on coated antigen
T3 construct: recombinant Fc fusion (R&D Systems); also called rmuEphA7-Fc; mEphA7
T3 sequence (receptor-Fc fusion, looked up): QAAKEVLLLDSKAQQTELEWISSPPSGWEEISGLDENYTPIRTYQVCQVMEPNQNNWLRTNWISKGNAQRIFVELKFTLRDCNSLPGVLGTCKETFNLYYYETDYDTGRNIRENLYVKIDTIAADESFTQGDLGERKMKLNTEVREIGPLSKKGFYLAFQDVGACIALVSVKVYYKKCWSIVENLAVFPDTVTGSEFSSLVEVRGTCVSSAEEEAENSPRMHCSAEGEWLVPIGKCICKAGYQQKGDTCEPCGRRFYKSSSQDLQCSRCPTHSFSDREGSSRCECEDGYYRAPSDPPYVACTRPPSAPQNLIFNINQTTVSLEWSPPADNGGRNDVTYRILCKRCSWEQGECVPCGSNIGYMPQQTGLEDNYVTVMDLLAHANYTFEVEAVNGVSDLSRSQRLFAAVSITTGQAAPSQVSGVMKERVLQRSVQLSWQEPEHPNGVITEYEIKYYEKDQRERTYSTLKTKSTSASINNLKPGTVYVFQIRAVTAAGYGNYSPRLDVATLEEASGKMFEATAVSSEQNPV

r murine EphA4 = target: T4, r murine EphA4 (mouse, UniProt Q03137); assay: activity ELISA, IgG on coated antigen
T4 construct: recombinant Fc fusion (R&D Systems); also called rmuEphA4-Fc; mEphA4
T4 sequence (Q03137 20-547 limits assumed): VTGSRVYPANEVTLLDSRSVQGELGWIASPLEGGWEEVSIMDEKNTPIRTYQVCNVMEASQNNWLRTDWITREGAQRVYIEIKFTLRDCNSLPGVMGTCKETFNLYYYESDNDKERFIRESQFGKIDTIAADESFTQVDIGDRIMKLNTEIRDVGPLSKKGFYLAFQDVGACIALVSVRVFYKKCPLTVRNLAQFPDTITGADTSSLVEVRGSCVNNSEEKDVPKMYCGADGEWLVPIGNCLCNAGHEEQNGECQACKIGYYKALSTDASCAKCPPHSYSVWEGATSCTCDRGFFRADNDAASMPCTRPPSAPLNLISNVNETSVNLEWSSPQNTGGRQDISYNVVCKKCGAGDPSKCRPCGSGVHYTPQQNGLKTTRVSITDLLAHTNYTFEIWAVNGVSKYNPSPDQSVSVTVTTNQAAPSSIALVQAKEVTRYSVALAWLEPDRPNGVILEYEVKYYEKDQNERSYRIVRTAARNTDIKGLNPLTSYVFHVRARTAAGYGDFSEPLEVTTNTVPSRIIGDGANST

mEphA7 = target: T5, mEphA7 (mouse, UniProt Q61772); assay: ELISA, receptor coated on the plate, purified IgG, anti-human kappa-HRP
T5 construct: part of an Fc fusion; also called rmuEphA7-Fc
T5 sequence (receptor-Fc fusion, looked up): T3 sequence (receptor-Fc fusion, looked up)

mEphA4 = target: T6, mEphA4 (mouse, UniProt Q03137); assay: as above
T6 construct: part of an Fc fusion; also called rmuEphA4-Fc
T6 sequence (Q03137 20-547 limits assumed): as above

r murine EphA8 = target: T7, r murine EphA8 (mouse, UniProt O09127); assay: Activity ELISA, receptor coated on the plate, purified IgG, anti-human kappa-HRP, OD 450 nm
T7 construct: recombinant soluble protein coated on the plate; also called mEphA8; rEphA8
T7 sequence (receptor construct, looked up): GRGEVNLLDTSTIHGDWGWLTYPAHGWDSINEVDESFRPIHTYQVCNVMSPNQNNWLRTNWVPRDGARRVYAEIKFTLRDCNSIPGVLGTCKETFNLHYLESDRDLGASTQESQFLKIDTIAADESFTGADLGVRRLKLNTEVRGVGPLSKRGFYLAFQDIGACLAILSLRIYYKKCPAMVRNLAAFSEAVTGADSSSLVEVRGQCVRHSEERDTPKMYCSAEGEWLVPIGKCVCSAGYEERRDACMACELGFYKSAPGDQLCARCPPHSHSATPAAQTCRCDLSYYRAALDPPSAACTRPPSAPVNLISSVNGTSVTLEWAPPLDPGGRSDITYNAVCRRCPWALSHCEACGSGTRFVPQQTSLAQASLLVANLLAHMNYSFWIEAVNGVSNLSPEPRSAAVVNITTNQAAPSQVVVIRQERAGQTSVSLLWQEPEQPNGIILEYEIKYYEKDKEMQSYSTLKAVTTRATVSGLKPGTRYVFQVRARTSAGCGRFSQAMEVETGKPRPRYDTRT
Experimental: as §1

T1 sequence (P54764 20-547): as the sequence (Q03137 20-547 limits assumed) above, with A59P, S121N, G124V, Q250R, N251S, S270T, R378K, S406N counted along it

Kd [1]: 6 pM
koff [1]: 8.66e-07 s⁻¹
kon [1]: 147000 M⁻¹ s⁻¹
binding result (r rat EphA5): binds
binding result (r murine EphA7): binds
binding result (r murine EphA4): binds
binding result (mEphA7): binds
binding result (mEphA4): binds
binding result (r murine EphA8): binds
B1: 3A12 IgG1 (affinity optimized combinatorial variant of mAb GEA44 in human IgG1 format) (antibody, V domains shown)
VH: QVQLLQSGAEVKKPGASVKVPCKASGYTFTSRAMSWVRQAPGQGLEWMGWINTNTGNPTYAQGFTGRFVFSLDTSVSTAYLQISSLKAEDTAVYYCARVRFTVYGDGMDVWGQGTLVTVSS
VL: EIVLTQSPATLSVSPGERATLSCRASQSVSSNLAWYQQKPGQAPRLLIYGASTWATGIPDRFSASGSGTDFTLTISRVEPEDFAVYYCQQYGPSWTFGQGTKVEIK
